The nature of this series: label from the status in PepcDB records.
For the sequence “MNKKKIKKLIKSALATTCAVSVITTTSVTAFASNSGENSKEEESNKRVEAEVYPVPQSLEHSSIEGMTLEGEVNIVYHGEQEAATSKRLERTLNENNIAFKVSENVEEGKANIIVSSEGDHCDVCSEGKEENSDVLTHKEGYVLKTSNDINEKGNISIIGSDKDGAYYGVLTLSQILEQSNEENKFAEVVVTDYPEIEFRGFIEGFYGVPWSHEDRMNLMKDTSEYKMNTYIYAPKDDPYHRLSWKELYPEQEAKQIAELAKAGAENNFNFCWTIHPGATLQFTDEDFDALINKFEQLYSLGVRQFGVLFDDTDDWRNGQKQAEWINKIDTEFVKAKGDVAPMIVISARYNSAWGPNMDRYFKPFMQTLHDDIQVMWTGHATMSNVSKEVFEWPKVQTGVDKDVAVWWNYPVNDYCDSRILMAPLHNLNQDLDNVSGFFSNPMNQAEASKVALYSIADYTWNTDAFDYMKSWETSIEKFVPEVKEEFMRFASNTCYLKDDGGASGPFEYDESWYLSEKIDALKEAMKNGQSAVKPAKDLLEEFKLIVSDYESITSKVTNKNLLGEIEQHLNAYKALGEAGIAAMEAIIASEEGNLELWMNSNSLAQEKLDLMETFKIESLESDGPKEYVVSVGTKLLKPLVKESMDYAKEKMGEVVLPKYDPEINTSLTNLKDVEVNFEDGIYSLRDLGEVTLNNGDYVGISLPKATKLRGINLLANNYDNIEIQYSINGLDWVTAKASTNENVLETLDVVDATFIRIINIGENSKNINLEKLEVLPVYKAEPTITENIGTHENYTIDKALDGNMDTKYWSNKPSDSGHNIQIDLGNVMPLYDINTYFGANDFMRNSEYMISEDGVNWTSLGALAYNSQDGKMVASANAEGKMARYIKIQSNGHNYGCWVEIYEIEFNKTAPEFDESAVNLASGTLEGNFNAFYDEDLSTAYEAKSVKDGDSLIYKMSRVTNISELEILQDKNRISEAKVSVKDLGGNWTEIGHLNAQINKLKVDNNITEVKFEFEGSKPAPKIYEIIAREREEQEEIVVSPVKEFKATTINKKNVTVSWEEPENTFGLESYILYKDGKKVSEISSDETSYTFKGLNRHTIYNFKIAAKYSNGEISKKESLTIRTAR”, the protein production result is “failed”.
As to “MNKKRTVDLIHGPILPSLLSFTFPILLSNIFQQLYNTADVLIVGRFLGQESLAAVGATTAIFDLIVGFTLGVGNGMGIVIARYYGARNFTKIKEAVAATWILGALLSILVMLLGFLGLYPLLQYLDTPAEILPQSYQYISMIVTCVGVSFAYNLFAGLLRSIGDSLAALGFLIFSALVNVVLDLYFITQLHLGVQSAGLATIISQGLSAVLCFYYIRKSVPELLPQFKHFKWDKSLYADLLEQGLAMGLMSSIVSIGSVILQFSVNTFGAVIISAQTAARRIMTFALLPMTAISASMTTFASQNLGAKRPDRIVQGLRIGSRLSISWAVFVCIFLFFASPALVSFLASSTDGYLIENGSLYLQISSTFYPILSLLLIYRNCLQGLGQKILPLVSSFIELIGKIVFVVLIIPWAGYKGVILCEPLIWVAMTVQLYFSLFRHPLIKEGKAILATKVQS”, the protein production result is “failed”.
Under “MNKKTIGFFSGIAVFAIIYFLPIAGLSAKGQMDLALSLMTVVWWATQIAQPAFVGGIYLMLLIIMNVATPSQVFSSAWTGSIMWLVIGAYLIAGAVNESGLGQRIAYAFIIKFVRSWKGIVISIFALTFILALLIPHPWPRAFMIMSVITVVAETAKMPKRDLAKLGLAVFAASCPLSGVFYTGDTSLNPLAVQASGQSVNFVSYFIYMGVPMIIAAILTMFLFLFLFKPSQEVHIDVEALKQQQAQLGGMTGKEVRTIIWLIIAIALWLTSGITGLDVGWLTLIVALMMSLPVVGGILTAKSWEGVPVNVLVFLTSAIAIGNVGGVTGMNNWIAKTLIPSNLPTNIYLLAIVITVFAMIIHMFMGSVIAVMGITIPAFVAATAHMGISPLAVSLLVFSVTNLHYILPFHNLAVLVGSDPDTGGGYTQKDVMRLGIPLTAVVFVVALVEMFWFHLVGLA” stands “failed”.
Turning to “MNKLILISGLMLFSFFFGAGNLIFPPMLGYTAQENMWVSMTGFAITGILLPYITVIVVAYMNGGVESIGNKVHPIFGTVFAICIYLSIGALYGIPRAANVAYEIGTNHVLPVHNHFTLIIFSLIFFLVVYLIALYPNRIIDNLGKYLTPILIIIIAVLCILVIINPEGSIGQASGEYAQTPIVSGILEGYFTMDLVAALAFSVVIVQMFKMSGVNDHKTLVKNVIKSGLISAILLLIIYFALAYVGATTSHEGFKDGTGILTFNSLRVFGSIGNLLFGVIVILACLTTCIGLVNACAAFAMKKLPKISYKMFVLIFSLLGFLVSTLGLELILQIAVPLLTFIYPTSIVLVLISLVSIFIPFEMKYAFILPTLMTLFISLLQIFNDFNLFQPLISLYKVLPLSDIQLSWLLPFIILLFIGLIIDYFLKNKTVSTS”, the protein production result is listed as “failed”.
In the case of “MNKNQMLLGSFLCLLAVTAWGFMFPVMARALQFIDPFFFTTLRYGSAAIIFLILLLITEGKTSLRLEKRTLSLFFYGTVGFAGYGFLVFYGQQLAGPSGAIHAAMIQSLMPLIALSLQWITQNRRPQNYTFLCMFVALLGVMLVISKGNIELLFGAASHLSTNILMLCGVTCWVIYTNGAARFQSWSPLRYTTLTCLFGSISLIVIVTFLTYTNIVTMPSLRTVVSVRFELFYMSIIAGVIAVFCWNMGNRYISSINGILFMNLVPILALIGSIFRGYTVDKIEIAGAALTIIALLCNNLWQRKVNIKIPTSVR” it was “failed”; in that of “MNKRLFYYLFAVLCTVTLFTSCSDDDGDDTPTVIPIEQEIAGDYKGTMDVYYVGVPDPIASGLSQKVYVTKASDTAVKLELRDFVFFLGSEELNLGTIAVENCPVTVEGTSYKFSGNQKMTLLVGDCDVAVSGTIGSGNLAMIVDVKVGGGTLQVKVDYKGTKLAGTESTEAKILSFTFDKSVEANAVVFSEPIVNEEDGTIVFEVLKDVTTDDLKKLVPTIEVSAKATVTPASGATVDFSSNKAIFTVVAEDGSSKIYTASISGRAFVVSYDFEEWDPVTHKPMLGNEETFTTPTGWCTSNYGIVEMGMFKPMLGVSGWLVTEESEGHNGKSALLRTINSKGGVGGLIPTITTGSLFLGTWSTNAGNTLNSTKFGNQFNNSLGRPVAVKGWYKYESGKDFYTCESDATDKATIDVSKGEYADQYSIKVSLYTTEEYDETGFSDYLTGESGDNNFYTSSRVVAKGGVEGGSTDGQWKEFTITLDYGDAEFDINQKYRFAIVCSSSKEGDKFWGAPESKLWVDDIEVIYKK”, “failed”.
Under “MNKRSIFSNWFITARPKTLPLALASIMVGSALANWVGQFDWVTNLLAIITTMLLQILSNFANDYGDYVKGSDTQERIGPLRAIQQGNITGEQLRQAVIFLSFLSFISGLVLTIYAYQSLQDLLVFVSLGVVSIIAAISYTVGKKAYGYLGLGDLFVLIFFGFVAVIGSFYLQAHSIPIIILLPAFACGLLSVAVLNINNLRDINQDRQAGKNTLIVRIGSDNGRIYHMLLLTLAVICYLIFAIIEGNHWYNYLFLLAVPLLVQHALFVYRYQEPIELRPMLGKMAALALLTNLLFSIGIMLG” stands “failed”; under “MNKSKIAGIMAKLNAVDNQLVEDVAYVRSRDFPNQRFDHQQGYKGSYGNGQTSYSQNSQFQQPLQNNNSFSFTRNFDLASYQDLTAPIPRWNESSLTTSWHAASMESGYEFMKDDESDEFDVAKAVTKQNRAGSTLISRVARHTLIVLTDTTWVSIHNNTNLRKCRRLTEQNRPRLTEQD”, “failed”; under “MNKVDEIEDFRFEDLEMETEKDKERMMTPTTRMSYSSSSSPSPSSASSSAASSLAAKAIRASSAHRDSSLSSAYSSPSSAPVPTPPKEVNKAYEYTSMKSLNEPKRGFWGSLASKAKAFLDEDDPNQLPQSPKRMEQSIPSATTSGTKEAGQTGRKSENPSLQRRLDAITSSLNYIGGTIGTVVEEGITAVENRTAGIIQETRKKIKKKPSLTRNQQNPEIQADLEIQLKASRDVAMAMAAKAKLLLRELKMVKSDLAFAKQRCAQLEEENKVLRENRSGDSQTDDDDLVRLQLETLLAEKARLAHENSIYTRENLYLRGVVEYHQLTMQDVVYFDEKTEEVTEVYPINVSSMSSSSDNSYNPNPSFLELK”, “failed”.
Under “MNKVLINDTTLRDGEQAAGVVFTLEEKVAIAKFLDTIGVPELEVGIPAMGEEEMRAICAISNLGLKANLLAWNRAVISDIKASVACGMERVHIAIPVSGIQIAAKFHGQWRVSLQRLKDCISFAVDQGLWVAVGGEDSSRADENFLLDVALYAQEWGASRFRFCDTVGVLDPFTTYGKVKLLVSALTIPVEVHTHNDFGMATANALAGIKAGASSVNTTVIGLGERAGNAALEEVVMAIKRIYGVDMGIDTPRLLELSQLVAAASGANVPPWKAIVGENTFAHESGIHAHGVLQNPDTYEPFAPEEVGWERRLVVGKHSGRHSVSNLLEQHGIFLNPEETQSVLDAVRQQSIKKLEHHHHHH” stands “failed”; under “MNKWVITSLFAISTLSASVASALEVRYMATPQQSTWQMATNTPLECRLVHPIPNYGDAEFSSRAGKKINLDFELKMRRPMGDTRNVSLVSMPPVWRPGEGADRITNLQFFKQFDGYIGGQTAWSLLSELEKGRYPTFSYQDWQSRDQRIEVALSSVLFQQPYNEFSDCISKLLPYSFEDISFTILHYDQGTSVELNKASQKRLAQIAEYVRYNQDIDLVLVSTYTDSTDTNNNSQNLSEQRAEVLREYFKSIGLPEDRIQVQGYGKRRPIADNASPIGKDKNRRVVISLGRTQV”, “failed”.
As for “MNLDLGSTVRGYESDKDTFPQSKGVSSSQKEQHSQLNQTKIAYEQRLLNDLEDMDDPLDLFLDYMIWISTSYIEVDSESGQEVLRSTMERCLIYIQDMETYRNDPRFLKIWIWYINLFLSNNFHESENTFKYMFNKGIGTKLSLFYEEFSKLLENAQFFLEAKVLLELGAENNCRPYNRLLRSLSNYEDRLREMNIVENQNSVPDSRERLKGRLIYRTAPFFIRKFLTSSLMTDDKENRANLNSNVGVGKSAPNVYQDSIVVADFKSETERLNLNSSKQPSNQRLKNGNKKTSIYADQKQSNNPVYKLINTPGRKPERIVFNFNLIYPENDEEFNTEEILAMIKGLYKVQRRGKKHTEDYTSDKNRKKRKLDVLVERRQDLPSSQPPVVPKSTRIEVFKDDDNPSQSTHHKNTQVQVQTTTSILPLKPVVDGNLAHETPVKPSLTSNASRSPTVTAFSKDAINEVFSMFNQHYSTPGALLDGDDTTTSKFNVFENFTQEFTAKNIEDLTEVKDPKQETVSQQTTSTNETNDRYERLSNSSTRPEKADYMTPIKETTETDVVPIIQTPKEQIRTEDKKSGDNTETQTQLTSTTIQSSPFLTQPEPQAEKLLQTAEHSEKSKEHYPTIIPPFTKIKNQPPVIIENPLSNNLRAKFLSEISPPLFQYNTFYNYNQELKMSSLLKKIHRVSRNENKNPIVDFKKTGDLYCIRGELGEGGYATVYLAESSQGHLRALKVEKPASVWEYYIMSQVEFRLRKSTILKSIINASALHLFLDESYLVLNYASQGTVLDLINLQREKAIDGNGIMDEYLCMFITVELMKVLEKIHEVGIIHGDLKPDNCMIRLEKPGEPLGAHYMRNGEDGWENKGIYLIDFGRSFDMTLLPPGTKFKSNWKADQQDCWEMRAGKPWSYEADYYGLAGVIHSMLFGKFIETIQLQNGRCKLKNPFKRYWKKEIWGVIFDLLLNSGQASNQALPMTEKIVEIRNLIESHLEQHAENHLRNVILSIEEELSHFQYKGKPSRRF”, the protein production entry was “failed”.
In the case of “MNLFAPPALFRHFHRMAWLAALFTASTILFGSFVRLSDAGMSCPDWPTCYGRVTWPQTSDEANTHVASKIRPLESHKAWREQVHRFLAGALGVEVLVLSLLAVRRRRMGIAQVVSAAVLVALSIPLYMSGWHATAFGMAITGEAILLLAALRWSNIDLARAAVLTLAVVIFQALLGMWTVTLLLKPIVVMGHLLGGMLMFSLLVWMAWRATHLPITLADASRLKWLLRLGVAVLGLQIALGGWVSANYAALACGGGSWSADNFPRCVSQWWPPHDFREGFTLWRGIGVDYEGGVLDGAARIAIQMAHRLWAIATALYLWWLAWRLSRSPGMRVWAGALALLVAVQVTLGMLNVKLALPLEVSLMHNGGAVALLFVLVSLLARLRAPE” it was “failed”.

Values taken from a protein production outcome set (Wang et al. 2014).
